# Laboratory results: paper PMC6356969, “Cytosolic Isocitrate Dehydrogenase from Arabidopsis thaliana Is Regulated by Glutathionylation” (Antioxidants, 2019)
# Substitutions are numbered along the chain they refer to. Names and notes keep the numbering of the source.
# B1: cytosolic NADP-dependent isocitrate dehydrogenase (cICDH), recombinant His-tagged (enzyme, Arabidopsis thaliana, UniProt Q9SRZ6 1-410, looked up)
# chain: MAFEKIKVANPIVEMDGDEMTRVIWKSIKDKLITPFVELDIKYFDLGLPHRDATDDKVTIESAEATKKYNVAIKCATITPDEGRVTEFGLKQMWRSPNGTIRNILNGTVFREPIICKNVPKLVPGWTKPICIGRHAFGDQYRATDAVIKGPGKLTMTFEGKDGKTETEVFTFTGEGGVAMAMYNTDESIRAFADASMNTAYEKKWPLYLSTKNTILKKYDGRFKDIFQEVYEASWKSKYDAAGIWYEHRLIDDMVAYALKSEGGYVWACKNYDGDVQSDFLAQGFGSLGLMTSVLVCPDGKTIEAEAAHGTVTRHFRVHQKGGETSTNSIASIFAWTRGLAHRAKLDDNAKLLDFTEKLEAACVGTVESGKMTKDLALIIHGSKLSRDTYLNTEEFIDAVAAELKERLNA
# notes: cytosolic NADP-dependent isocitrate dehydrogenase, Arabidopsis thaliana, At1g65930; predicted mass 48.3 kDa including the N-terminal His-tag; also called His-ICDH; His-cICDH; source: E. coli BL21, purified (Ni2+-Sepharose); not shown: His-tag, N-terminal, kept
# B2: cICDH (cytosolic NADP-ICDH, At1g65930) (Arabidopsis thaliana; C363S) (protein)
# chain: B1 chain with C363S
# notes: ~90 kDa non-covalent dimer
# Tests used:
# [1] = molecular target: T1, cICDH (cytosolic NADP-ICDH, At1g65930) (Arabidopsis thaliana, UniProt Q9SRZ6, C363S); assay: residual activity after preincubation, NADPH at […] nm; format: biochemical; conditions: 1 mM GSNO preincubation, 25 °C; covalent
# T1 construct: ~90 kDa non-covalent dimer
# T1 sequence (Q9SRZ6 whole entry C363S): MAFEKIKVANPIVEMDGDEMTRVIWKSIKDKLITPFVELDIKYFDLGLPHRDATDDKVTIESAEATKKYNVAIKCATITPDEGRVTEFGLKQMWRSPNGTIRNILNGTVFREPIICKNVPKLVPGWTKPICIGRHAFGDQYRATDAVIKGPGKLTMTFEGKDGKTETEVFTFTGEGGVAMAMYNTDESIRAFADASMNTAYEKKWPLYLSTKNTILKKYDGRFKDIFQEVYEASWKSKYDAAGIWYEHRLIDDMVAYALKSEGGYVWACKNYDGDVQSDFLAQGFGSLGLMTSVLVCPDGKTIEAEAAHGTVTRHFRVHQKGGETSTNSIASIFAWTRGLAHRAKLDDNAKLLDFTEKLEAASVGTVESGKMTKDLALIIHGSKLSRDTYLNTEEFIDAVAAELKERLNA
# [2] = molecular target: T2, cICDH (cytosolic NADP-ICDH, At1g65930) (Arabidopsis thaliana, UniProt Q9SRZ6); assay: residual activity after preincubation; LC-MS/MS of glutathionylated peptide; biotin switch; format: biochemical; conditions: 15 min at 25 °C before assay; covalent, S-glutathionylation of Cys363 and S-nitrosylation
# T2 construct: ~90 kDa non-covalent dimer
# purified protein [3] = substrate: NC(=O)c1ccc[n+]([C@@H]2O[C@H](COP(=O)(O)OP(=O)(O)OC[C@H]3O[C@@H](n4cnc5c(N)ncnc54)[C@H](OP(=O)(O)O)[C@@H]3O)[C@@H](O)[C@H]2O)c1; assay: purified protein; format: biochemical, Arabidopsis thaliana; conditions: NADP+ varied 0-1 mM, DL-isocitric acid as co-substrate, 5 mM MgCl2, 100 mM potassium phosphate pH 7.5, 25 °C
# purified protein [4] = substrate: O=C(O)CC(C(=O)O)C(O)C(=O)O; assay: purified protein; format: biochemical, Arabidopsis thaliana; conditions: 250 µM NADP+, 5 mM MgCl2, 100 mM potassium phosphate pH 7.5, 25 °C, DL-isocitric acid varied 0-5 mM
# [5] = molecular target: the molecule itself; assay: SEC; Superose 12 column, ~10 ug His-ICDH, 50 mM Tris pH 7.5, 5 mM MgCl2, 150 mM NaCl; standards aldolase 158 kDa, conalbumin 75 kDa, ovalbumin 43 kDa; eluted at ~90 kDa against a 48.3 kDa monomer
# [6] = Table 1 labels the mutant C297S, text and methods say C363S
molecule,measurement,setting,value
N[C@@H](CCC(=O)N[C@@H](CSN=O)C(=O)NCC(=O)O)C(=O)O [GSNO],activity after 1 mM GSNO,[1],cICDH C363S was found to be less affected by GSNO treatment than the wild-type enzyme
same,activity at increasing GSNO,[2],both increasing concentrations of GSNO and GSSG progressively inhibited the cICDH activity
B1,Km,purified protein [3],28 µM
same,kcat,purified protein [3],5.81 s⁻¹
same,Km,purified protein [4],99 µM
same,kcat,purified protein [4],4.93 s⁻¹
same,kcat/Km,purified protein [4],49700 M⁻¹ s⁻¹
same,stoichiometry N,[5],2
B2,Km,purified protein [4]; [6],95 µM
same,kcat,purified protein [4]; [6],4.31 s⁻¹
